From patent US20160024208A1 (Regeneron, published 2016)

T1: N-Term Biotin Nav1.7 (3-1) peptide, mouse (mouse, not fully specified; N-terminal biotin attached via a G4S linker)
T1 construct: Synthetic peptide; also called Mouse Nav1.7 3-1 N-term biotin
T1 peptide: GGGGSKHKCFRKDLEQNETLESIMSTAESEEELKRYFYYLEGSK

T2: Native Nav1.7 (3-1) peptide, rat (rat)
T2 construct: Synthetic peptide; also called Rat Nav1.7 3-1 native
T2 peptide: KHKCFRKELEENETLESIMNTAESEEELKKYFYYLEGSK

T3: N-Term Biotin Nav1.7 (3-1) peptide, mulatta (mulatta (monkey), not fully specified; N-terminal biotin attached via a G4S linker)
T3 construct: Synthetic peptide; also called Mulatta Nav1.7 3-1 N-term biotin; monkey
T3 peptide: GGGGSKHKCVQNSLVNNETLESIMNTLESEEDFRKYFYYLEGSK

T4: Native Nav1.7 (3-1) peptide, human (human)
T4 construct: Synthetic peptide (Celtek), unbiotinylated; also called Human Nav1.7 3-1 native; Nav1.7 3-1 native peptide
T4 peptide: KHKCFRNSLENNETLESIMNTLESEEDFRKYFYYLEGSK

T5: C-term Biotin Nav1.7 (3-1) peptide, human (human, not fully specified; C-terminal biotin attached via a G4S linker)
T5 construct: Synthetic peptide; also called Human Nav1.7 3-1 C-term biotin
T5 peptide: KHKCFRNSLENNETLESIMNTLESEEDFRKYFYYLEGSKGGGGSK

T6: N-Term Biotin-Nav1.7 (3-1) peptide, human (human, not fully specified; N-terminal biotin attached via a G4S linker)
T6 construct: ELISA peptide
T6 peptide: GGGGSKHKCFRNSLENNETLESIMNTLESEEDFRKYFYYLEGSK


Columns and labels:
[1] = target: T1, N-Term Biotin Nav1.7 (3-1) peptide, …; assay: SPR, captured antibody, peptide analyte
Experimental: (§1) The binding affinities of anti-Naᵥ 1.7 antibodies to Naᵥ 1.7 loop peptides were determined by Biacore. For monovalent kinetic experiments, antibodies were captured through the Fc region via a goat anti-Fc-coupled biosensor surface, and the peptides (as analyte) were injected over this captured antibody surface. For bivalent (avidity-driven) kinetic experiments, biotinylated peptides corresponding to the Naᵥ 1.7 3-1, 3-3, or paddle loop sequences were captured on a NeutrAvidin sensor surface, and anti-Naᵥ 1.7 antibodies (as analyte) were injected over this surface. Following the capture step, each analyte was individually injected at several concentrations over its respective capture surface, and changes in bound surface units (RU) were monitored. The dissociation rate is independent of the concentration of analyte used in the experiment, and the dissociation rate constant (kd) was determined from the change in antibody-bound analyte RU over time. The Biacore kinetic data were obtained using a double referencing procedure. The double referencing was conducted by first subtracting any interaction of the analyte over the reference surface (i.e., the anti-Fc coupled surface alone or the NeutrAvidin surface alone), thereby correcting for nonspecific binding to capture surface and for refractive index changes. Control buffer injections (no analyte) over the antibody- or peptide-captured surfaces were also performed to allow subtraction of RU signal changes resulting from the natural dissociation of captured binding partner from the sensor surface. The kinetic parameters were obtained by globally fitting the data for all concentrations tested for a given peptide or antibody to a 1:1 binding model using Biacore T100 Evaluation Software version 2.0.2. The KD was calculated as the dissociation rate constant divided by the association rate constant (KD=kd/kₐ). The dissociative half-life (t_{1/2}) was calculated from the dissociation rate constant (t_{1/2}=In2/kd).

[2] = target: T2, Native Nav1.7 (3-1) peptide, rat; assay: SPR, captured antibody, peptide analyte
Experimental: as §1

[3] = target: T3, N-Term Biotin Nav1.7 (3-1) peptide, …; assay: SPR, captured antibody, peptide analyte
Experimental: as §1

[4] = target: T4, Native Nav1.7 (3-1) peptide, human; assay: SPR, captured antibody, peptide analyte
Experimental: as §1

[5] = target: T5, C-term Biotin Nav1.7 (3-1) peptide, …; assay: SPR, captured biotin-peptide, antibody analyte
Experimental: as §1

[6] = target: T1, N-Term Biotin Nav1.7 (3-1) peptide, …; assay: ELISA on coated peptide, antibody 1 ug/ml, OD450 grade
Experimental: (§2) Anti-Naᵥ 1.7 antibodies were tested for their ability to bind to the Naᵥ 1.7 peptides. The various peptides were coated overnight onto 96-well Nunc Immunosorp plates at a concentration of 4 μg/mL in PBS, followed by blocking for 1 hour in a suitable blocking agent. For biotinylated peptides, avidin was first coated on Nunc Immunosorp plates at 2 μg/mL in PBS overnight, followed by blocking as described, and the plate was then coated with biotinylated peptides at a concentration of 0.4 μg/mL and incubated for 1 hour at room temperature. Purified anti-Naᵥ 1.7 antibodies were diluted to a final concentration of 0.1 μg/mL and 1.0 μg/mL and added to the wells of the coated microtiter plates followed by incubation for 1 hour at room temperature. Bound antibodies were detected with horseradish peroxidase (HRP) conjugated anti-mouse or anti-human IgG (Jackson Immuno Research Lab, West Grove, Pa.) depending on the antibody species and developed by colorimetric response using tetramethylbenzidine (TMB) substrate (BD Biosciences). Absorbance was read at OD₄₅₀ on a plate reader for 0.1 second.
(§3) Values in Table 11 represent absolute binding ranges (at OD450) to plate-coated peptides for antibodies added at 1 μg/ml as follows: OD450<0.2: −; 0.2<OD450<1: +; 1<OD450<2: ++; 2<OD450<4: +++; NT: Not Tested.

[7] = target: T2, Native Nav1.7 (3-1) peptide, rat; assay: as above
Experimental: as §2, §3

[8] = target: T6, N-Term Biotin-Nav1.7 (3-1) peptide, …; assay: as above
Experimental: as §2, §3

[9] = target: T3, N-Term Biotin Nav1.7 (3-1) peptide, …; assay: as above
Experimental: as §2, §3

[10] = target: T7, full-length human Nav1.7 fused at its N-terminus to GFP, expressed in HEK293 cells (human, UniProt Q15858 1-1988); assay: cell-based or functional assay
[11] = target: T7, full-length human Nav1.7 fused at its …; assay: flow cytometry; % stained hNav1.7-GFP-HEK293 minus parental HEK293
Experimental: The binding of anti-Naᵥ 1.7 human antibodies to full-length Naᵥ 1.7 expressed in HEK293 cells was determined by flow cytometry (FACS). HEK293 cells were stably-transfected with full-length human Nav1.7 fused at its N-terminus to the green fluorescent protein (GFP) to generate cell line hNaᵥ 1.7-GFP-HEK293. Antibody binding to the transfected cells overexpressing Naᵥ 1.7 was compared to binding to the parental HEK293 cell line. To perform the binding experiments, adherent cells were collected using 1 mM EDTA in PBS, washed and re-suspended in cold PBS containing 5% FBS. For each binding experiment, the anti-Naᵥ 1.7 antibody (at concentrations ranging from 1 nM to 13 nM), was added to 250,000 cells in 500 μL of PBS with 5% FBS. After incubation for 20 minutes on ice, the secondary antibody, recognizing either human-Fc and conjugated to cyanine 5 (Cy5) or recognizing mouse-Fc and conjugated to allophyocyanin (APC), was then added to the cell mixture at a final secondary antibody concentration of 1.7 nM. After incubating for 20 minutes on ice, the cells were resuspended in PBS+5% FBS and then sorted and analyzed on a flow cytometer to determine relative binding by the candidate antibodies. For FACS analysis, gating was applied to examine only healthy live cells in the antibody binding experiments, and percentage stained was recorded. Staining of secondary antibodies alone to Naᵥ 1.7-GFP-HEK293 cells gave low background signals (1-2%). Specific binding was measured as the percent binding to Naᵥ 1.7-GFP-HEK293 cells minus percent binding to parental HEK293 cells.

[12] = target: T7, full-length human Nav1.7 fused at its …; assay: flow cytometry on Nav1.7-GFP-HEK293, antibody 3.3 nM
Experimental: (§4) The specificity of binding of anti-Naᵥ 1.7 human antibodies to full-length Naᵥ 1.7 expressed in HEK293 cells was determined by peptide competition experiments using flow cytometry.
(§5) HEK293 cells stably-transfected with full-length Naᵥ 1.7 fused at its N-terminus to GFP (Naᵥ 1.7-GFP-HEK293) were used for this study. Antibody binding to the transfected cells overexpressing Naᵥ 1.7 was compared to binding in the presence of excess peptide and to binding to the parental HEK293 cell line. To perform the binding experiments, adherent cells were collected using 1 mM EDTA in PBS, washed and re-suspended in cold PBS containing 5% FBS. For each binding experiment the anti-Naᵥ 1.7 antibody at a final concentration of 3.3 nM (in PBS/5% FBS) was added to cells either directly or after incubating for 10 min on ice with a 1000-fold molar excess (3.3 uM final concentration in PBS/5% FBS) of synthetic peptide with sequence corresponding to the loop specificity of the antibody. The antibodies designated as H4H391P, H4H443B, H4H448B, and H1M797N were preincubated as described above with a synthetic peptide corresponding to EC loop 3-1 (amino acid residues 269-338 of SEQ ID NO: 670), whereas the antibodies designated as H4H468P and H1 M852N were preincubated with a synthetic peptide corresponding to EC loop 3-3 (amino acid residues 1333-1382 of SEQ ID NO: 670). The antibody or antibody-peptide mixture was then allowed to incubate with cells for 20 min on ice, followed by addition of 500 uL of cold PBS/5% FBS. Cells were collected by centrifugation, resuspended in 500 uL of cold PBS/5% FBS, and then secondary antibody matched to the antibody isotype (either anti-human-Fc conjugated to Cyanine 5 or anti-mouse-Fc conjugated to allophyococyanin) was added. Binding was detected on the flow cytometry instrument and analyzed as percent binding using the instrument software. For FACS analysis appropriate gating was applied so that only healthy, live cells were counted. Background staining of secondary antibodies alone to Naᵥ 1.7-GFP-HEK293 cells was tested and recorded for all samples, and results ranged between 1-2% binding.

[13] = target: T7, full-length human Nav1.7 fused at its …; assay: flow cytometry on Nav1.7-GFP-HEK293, antibody 3.3 nM preincubated with 3.3 uM EC 3-1 peptide as competitor
Experimental: as §4, §5

[14] = target: T1, N-Term Biotin Nav1.7 (3-1) peptide, …; assay: ELISA on coated peptide
Experimental: as §2, §3

| Binder | Kd [3] [nM] | t1/2 [3] [min] | Kd [4] [nM] | t1/2 [4] [min] | Kd [5] [nM] | t1/2 [5] [min] | % Binding Nav1.7 [11] [%] | binding result [1] | % Binding Nav1.7 (Stable Line) [12] [%] | % Binding Nav1.7 + 1000x Peptide (Competition Binding) [13] [%] | further results |
| --- | --- | --- | --- | --- | --- | --- | --- | --- | --- | --- | --- |
| H1H1019B (antibody, V domains shown) VH: EVQLVESGPGLVKPSETLSLKCTVSGGSIRSSGYYWGWIRQPPGKGLEWIGSIHHSGSTYYNPSLKSRVTISVDTSKSQFSLRLTSVTAADTAVYYCGRHGRDYYYGMDVWGQGTTVTVSS VL: AIQLTQSPSSLSASVGDRVTITCRASQDINNWLVWYQQKPGKAPKLLIYAASSLQSGVPSRFSGSGSGTDFTLTISSLQPEDFATYYCQQANSFPLTFGGGTKVDIKR | 12.6 | 2.8 | 113 | 0.44 | 0.231 | 29.8 | 28.1 | – | – | – | Kd [1]: 351 nM; t1/2 [1]: 0.083 min; Kd [2]: 101 nM; t1/2 [2]: 0.11 min; OD450 [6]: 2 to 4 od; OD450 [7]: 2 to 4 od; OD450 [8]: 2 to 4 od; OD450 [9]: 2 to 4 od; Current blocking (Average % inhibition), IonWorks Quattro, 223 nM antibody [10]: 24% |
| H1M994N (antibody, V domains shown, Hybridoma-derived) VH: QVQLVESGGGVVQPGRSLRLSCAASGFTFSSYGMHWVRQAPGKGLEWVAVISYDGNNKHFADSVKGRFTISRDNSKNTLNLQMNSLRAEDRAVYYCARGASGFVLDIWGQGTMVTVSS VL: DIVMTQTPLSSPVTLGQPASISCRSSQSLVRSDGNTYLSWLQQRPGQPPRLLIYKISNRFSGVPDRFSGSGAGTDFTLKISRVEAEDVGIYFCMQTTQFPFTFGPGTKVDIK | – | – | – | – | – | – | 36 | – | 93 | 33.4 | – |
| H1M826N (antibody, V domains shown, Hybridoma-derived) VH: QVQLVESGGGVVQPERSLRLSCAASGFTFSSYGMHWVRQAPGEGLEWVAVISYDGSNTKYADSVRGRFTISRDNSKNMLYLQMNSLRAEDTAVFYCARGYSGYAFDYWGQGILVTVSS VL: DIVMTQTPLSSPVTLGQPASISCRSSHSLVRSDGNTYLSWLQQRPGQPPRLLIYKISNRFSGVPDRFSGTGAGTDFTLKINRVEAEDVGFYYCMQATQFPFTFGPGTKVDIK | – | – | – | – | – | – | 61 | – | 95.6 | 17.7 | – |

Second part, led by results:

| Kd [3] [nM] | t1/2 [3] [min] | Kd [4] [nM] | t1/2 [4] [min] | Kd [5] [nM] | t1/2 [5] [min] | % Binding Nav1.7 [11] [%] | binding result [1] | % Binding Nav1.7 (Stable Line) [12] [%] | % Binding Nav1.7 + 1000x Peptide (Competition Binding) [13] [%] | Binder | further results |
| --- | --- | --- | --- | --- | --- | --- | --- | --- | --- | --- | --- |
| 2.18 | 36.1 | 13.6 | 8.1 | 0.802 | 64.6 | 14.3 | no binding | 7.8 | 2.6 | H4H391P (antibody, V domains shown) VH: QVQLVESGGGVVQPGRSLRLSCAASGFTFSSYGMHWVRQAPGKGLEWVAVISYEGSNKHYADSVKGRFTISRDNSKNTLYLQMNSLRAEDTAVFYCAQSRGYSYGLGYWGQGTLVTVSS VL: not shown | binding result [2]: no binding |
| – | – | – | – | – | – | – | no binding | – | – | H4H408B (antibody, V domains shown) VH: QVQLVESGGGVVQPGRSLRLSCAASGFTFSSYGMHWVRQAPGKGLEWVAVISYQESNKHYVDSVKGRFTISRDNSKNTLYLQMNSLRAEDTAVYYCAQSRGYSYGLGYWGQGTLVTVSS VL: DIQMTQSPSSLSASVGDRVTITCRASQGIRNDLGWYQQKPGKAPKRLIYAASSLQSGVPSRFSGSGSGTEFTLTISSLQPEDFATYYCQQHNSYPLTFGQGTKVEIKR | OD450 [14]: < 0.2 od |
